What was measured:
[1] = biological target: human epidermal growth factor receptor, endogenous in HEp-2 cells (human (endogenous in HEp-2)) (UniProt P00533)
[2] = biological target: human epidermal growth factor receptor, endogenous in HEp-2 cells (human (endogenous in HEp-2)) (UniProt P00533); remark: listed apart in the source

“Pmp21 on the surface of C. pneumoniae elementary bodies (from UniProt Q9Z6U5 31-1609) (natural protein)” gave an infectivity of C. pneumoniae for cells preincubated 2 h with EGF [1] of 47 % reduction and an infectivity of C. pneumoniae for HEp-2 cells pretreated 2 h with cetuximab [2] of 54 % reduction.

Reference: paper PMC3635982
